From article PMC2330244 come the findings set out here.

Holding throughout (experiment): EMSA
For orientation: Mobility shift assays separate free from complexed probe on a gel.

Data set [1] has as its target T1, p53 (human, UniProt P04637 1-393).
The target in data set [2] is T2, p73α+30 (UniProt O15350 1-636+P04637:364-393, internal_change).
Another data set deals with T3, p73δ (UniProt O15350-4 1-403).
T3 sequence: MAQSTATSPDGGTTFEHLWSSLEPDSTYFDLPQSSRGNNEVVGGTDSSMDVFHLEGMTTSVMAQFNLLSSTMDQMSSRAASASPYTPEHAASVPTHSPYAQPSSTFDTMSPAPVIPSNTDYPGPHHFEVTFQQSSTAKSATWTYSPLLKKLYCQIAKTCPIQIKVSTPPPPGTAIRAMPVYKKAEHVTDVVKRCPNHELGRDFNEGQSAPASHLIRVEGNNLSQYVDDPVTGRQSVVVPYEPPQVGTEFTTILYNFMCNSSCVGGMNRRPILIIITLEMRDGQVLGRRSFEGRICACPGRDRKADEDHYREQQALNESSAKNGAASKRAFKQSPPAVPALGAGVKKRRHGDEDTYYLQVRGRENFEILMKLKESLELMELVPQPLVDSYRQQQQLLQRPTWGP

Data set [3] concerns the target T4, p73α (UniProt O15350 1-636).
T4 sequence: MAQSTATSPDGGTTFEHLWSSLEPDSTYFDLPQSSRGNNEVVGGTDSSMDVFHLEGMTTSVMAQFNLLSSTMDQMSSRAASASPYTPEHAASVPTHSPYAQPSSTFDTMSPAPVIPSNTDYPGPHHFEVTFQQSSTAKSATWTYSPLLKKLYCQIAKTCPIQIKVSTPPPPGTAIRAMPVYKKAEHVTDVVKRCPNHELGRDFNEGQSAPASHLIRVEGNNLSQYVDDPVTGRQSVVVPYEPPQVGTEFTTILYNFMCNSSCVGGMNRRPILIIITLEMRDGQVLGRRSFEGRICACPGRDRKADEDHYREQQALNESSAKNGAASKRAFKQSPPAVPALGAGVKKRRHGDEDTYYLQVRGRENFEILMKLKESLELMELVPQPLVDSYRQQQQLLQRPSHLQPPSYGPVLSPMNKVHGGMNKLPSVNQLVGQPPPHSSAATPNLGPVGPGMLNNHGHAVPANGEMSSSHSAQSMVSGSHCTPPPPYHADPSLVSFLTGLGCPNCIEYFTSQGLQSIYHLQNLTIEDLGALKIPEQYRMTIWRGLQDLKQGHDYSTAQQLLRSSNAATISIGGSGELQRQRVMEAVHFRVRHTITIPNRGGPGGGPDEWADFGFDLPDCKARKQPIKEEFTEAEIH

A further data set concerns the target T5, p73β (UniProt O15350-2 1-499).
T5 sequence: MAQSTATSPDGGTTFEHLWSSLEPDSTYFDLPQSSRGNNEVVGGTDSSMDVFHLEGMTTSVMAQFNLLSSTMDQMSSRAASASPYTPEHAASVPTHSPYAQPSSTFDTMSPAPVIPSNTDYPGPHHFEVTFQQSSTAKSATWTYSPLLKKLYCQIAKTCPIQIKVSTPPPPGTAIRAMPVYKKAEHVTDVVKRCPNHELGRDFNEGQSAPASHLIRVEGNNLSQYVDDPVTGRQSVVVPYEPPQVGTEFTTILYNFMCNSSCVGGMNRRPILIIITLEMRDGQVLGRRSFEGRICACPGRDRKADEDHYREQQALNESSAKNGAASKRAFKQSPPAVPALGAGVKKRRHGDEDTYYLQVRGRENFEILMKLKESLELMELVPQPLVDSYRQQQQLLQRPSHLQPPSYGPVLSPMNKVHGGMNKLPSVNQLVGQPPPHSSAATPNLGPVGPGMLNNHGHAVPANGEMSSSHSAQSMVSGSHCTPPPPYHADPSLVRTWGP

The target of data set [4] is T4, p73α. The source holds these as a separate data set.
Data set [5] addresses T1, p53. This is another data set of the same source.
Data set [6] has as its target T2, p73α+30. This is another data set of the same source.
In data set [7] the target is T1, p53. This is another data set of the same source.
Data set [8] deals with T2, p73α+30. The source holds these as a separate data set.
The next data set addresses T6, p73γ (UniProt O15350-3 1-475).
T6 sequence: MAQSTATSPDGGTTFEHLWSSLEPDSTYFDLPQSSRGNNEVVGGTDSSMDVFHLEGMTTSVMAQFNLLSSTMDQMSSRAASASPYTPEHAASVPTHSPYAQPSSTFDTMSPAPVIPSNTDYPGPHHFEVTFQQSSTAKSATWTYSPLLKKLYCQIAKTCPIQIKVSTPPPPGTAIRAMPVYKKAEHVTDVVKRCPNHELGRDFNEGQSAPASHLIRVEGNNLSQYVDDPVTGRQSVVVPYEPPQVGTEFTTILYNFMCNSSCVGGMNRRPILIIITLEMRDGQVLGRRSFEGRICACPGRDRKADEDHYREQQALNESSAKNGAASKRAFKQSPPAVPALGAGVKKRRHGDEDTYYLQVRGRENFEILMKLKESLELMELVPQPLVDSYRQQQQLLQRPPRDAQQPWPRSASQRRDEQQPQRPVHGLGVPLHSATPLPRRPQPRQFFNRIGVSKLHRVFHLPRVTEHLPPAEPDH

Where two headings read alike, the source gives them in different places.

T1 sequence (P04637 whole entry): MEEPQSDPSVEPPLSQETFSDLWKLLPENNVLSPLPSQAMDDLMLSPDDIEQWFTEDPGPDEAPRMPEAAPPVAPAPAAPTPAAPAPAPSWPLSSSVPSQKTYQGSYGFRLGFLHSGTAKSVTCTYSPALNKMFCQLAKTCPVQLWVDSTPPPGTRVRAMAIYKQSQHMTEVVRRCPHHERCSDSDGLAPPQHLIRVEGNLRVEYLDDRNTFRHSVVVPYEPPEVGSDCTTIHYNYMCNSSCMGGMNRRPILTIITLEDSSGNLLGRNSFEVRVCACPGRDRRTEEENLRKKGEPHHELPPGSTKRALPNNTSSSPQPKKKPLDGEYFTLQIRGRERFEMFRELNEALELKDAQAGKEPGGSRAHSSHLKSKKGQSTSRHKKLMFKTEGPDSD

B1: p53 consensus (dsDNA)
DNA 1: GGGTAGACATGCCTAGACATGCCTAAGCTCCC
DNA 2: GGGAGCTTAGGCATGTCTAGGCATGTCTACCC
As to B1, the binding result with p53 [1], with p73α+30 [2], with p73δ, in the data set with p73α [3] and with p73β was “binds” each time.

B2: p21-5' site 28 bp (dsDNA)
DNA 1: TCAGGAACATGTCCCAACATGTTGAGCT
DNA 2: AGCTCAACATGTTGGGACATGTTCCTGA
Consider B2, for which the binding result with p73α [4] and with p53 [5] was “binds” throughout. The binding signal with p73α+30 [6] is 1 fold (reference for 66 bp).

B3: p21-5' site 66 bp (dsDNA)
DNA 1: AGCATTGGCTTTCTGGCCATCAGGAACATGTCCCAACATGTTGAGCTCTGGCATAGAAGAGGCGCT
DNA 2: AGCGCCTCTTCTATGCCAGAGCTCAACATGTTGGGACATGTTCCTGATGGCCAGAAAGCCAATGCT
For B3, the binding result with p53 [7], with p73α [4] and with p73γ was “binds” in each case. The binding signal with p73α+30 [8] was ~5 fold vs 28 bp oligonucleotide.
